Target: T1, Mouse talin-1 R7R8 (mouse, UniProt P26039 1359-1659)
T1 construct: talin-1, mouse, rod domains R7 and R8 (R7R8 double domain module); 15N-labelled for the NMR experiments; also called talin R7R8; R7R8 module; source: expressed and purified as described previously [9]
Experiment: fluorescence polarisation; BODIPY-TMR coupled peptide at 0.5 µM in PBS pH 7.4, 5 mM TCEP, 0.05% Triton X-100; one-site total and nonspecific binding model
Settings: both partners purified

T1 sequence (P26039 1359-1659): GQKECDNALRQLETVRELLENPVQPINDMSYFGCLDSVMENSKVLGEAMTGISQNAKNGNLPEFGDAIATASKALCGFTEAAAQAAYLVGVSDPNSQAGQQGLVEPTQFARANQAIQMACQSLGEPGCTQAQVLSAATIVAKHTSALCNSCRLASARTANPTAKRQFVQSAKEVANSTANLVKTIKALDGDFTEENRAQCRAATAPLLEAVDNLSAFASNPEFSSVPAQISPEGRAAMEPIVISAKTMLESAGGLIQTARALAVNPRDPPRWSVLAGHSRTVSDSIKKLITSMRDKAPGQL

B1: KANK1 KN motif peptide (for FP), BODIPY-TMR coupled (peptide)
peptide: PYFVETPYGFQLDLDFVKYVDDIQKGNTIKKC
modifications: BODIPY-TMR coupled
notes: KANK1 KN motif, mouse residues 30-60; extra C-terminal cysteine printed beyond the stated limits 30-60; also called WT-KANK1; source: synthetic peptide, bought: GLBiochem (Shanghai)
- Kd: 1200 nM

From PMC10281804, “The structural basis of the talin–KANK1 interaction that coordinates the actin and microtubule cytoskeletons at focal adhesions” (Open Biology, 2023)
